Reference: paper PMC9270183 (The Journal of Experimental Medicine, 2022)

B1: V017 (antibody, V domains shown)
VH: EVQLVESGGGLVQPGGSLRLSCVASGFTFSTYSMNWVRQAPGKGLEWVSYISSSSSTIYYADSVKGRFTISRDNAKSSLYLQMNSLRAEDTAVYYCASGLCGGDCPLTCWGQGTLVTVSS
VL: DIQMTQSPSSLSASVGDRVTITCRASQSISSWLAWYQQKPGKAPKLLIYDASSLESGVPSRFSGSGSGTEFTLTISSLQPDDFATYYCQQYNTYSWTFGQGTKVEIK
notes: IgG; donor BRA13; source: recombinant monoclonal IgG, produced and purified as previously described
B2: V064 (antibody, V domains shown)
VH: EVQLVESGGGLVQPGGSLRLSCAASGLTVSRNYMRWVRQAPGKGLEWVSLIYSGGSTFYGDSVKGRFTISRDNSKNTLYLQMNSLRAEDTAVYYCARDLVRDGMDVWGQGTTVTVSS
VL: EIVMTQSPATLSVSPGERATLSCRASQSVSSNLAWYQQKPGQAPRLLIYGASTRATGIPARFSGSGSGTEFTLTISSLQSEDFAVYYCQQYNNWTFGQGTKVEIK
notes: IgG; donor BRA15; source: recombinant monoclonal IgG, produced and purified as previously described
B3: V047 (antibody, V domains shown)
VH: EVQLVESGGGLVQPGGSLRLSCAASGFTFSSYWMSWVRQAPGKGLEWVANIKQDGSEKYYVDSVKGRFTISRDNAKNSLYLQVNSLRAEDTAVYYCARGQSRQYSSSWYGPAPVVDYFDYWGQGTLVTVSS
VL: QSVLTQPPSASGTPGQRVTISCSGSSSNFGSNYVYWYQQLPGTAPKLLIYRNKQRPSGVPDRFSGSKSGTSASLAISGLRSEDEADYYCAAWDDSLSVLWVFGGGTKLTVL
notes: IgG; donor BRA15
B4: V061 (antibody, V domains shown)
VH: QVQLVQSGAEVKKPGTSVKVSCKASGYTFKNYGISWVRQAPGQGLEWMGWISAHNGNTNYAQRVQGRVTMTTDTSTSTAYMELRSLRSEDTAVYYCGRESGVASHPGDLDYWGQGTLVTVSS
VL: SYELTQPPSVSVSPGQTARITCSGDALPRQYAYWYQQKPGQAPVLLIYKDSERPSGIPERFSGSSSGTTVTLTISGVQAEDEADYYCQSADSSVVFGGGAKLTVL
notes: as for B2
B5: V003 (antibody, V domains shown)
VH: EVQLVQSGAEVKKPGESLKISCLGSGYSFTSYWIGWVRQMPGKGLEWMGIIFPADSDTRYSPSFQGQVIISADKSISTAYLQWSSLKASDTAMYYCARLREFGDYYYYGMDVWGQGTTVTVSS
VL: DIQLTQSPSSLSASVGDRVTITCRASQGISSYLAWYQQKPGKAPKLLIYAASTLQSGVPSRFSGSGSGTDFTLTISSLQPEDFATYYCQQLNSYPDFGQGTKLEIK
notes: as for B1
B6: V057 (antibody, V domains shown)
VH: EVQLVESGGGLVQPGRSLRLSCAASGFTFGDYAMHWVRQAPGKGLEWVSGISWNSGIIGQADSVKGRFTISRDNAKNSLYLQMNSLRVEDTALYYCAKGGGESVEVPADEKLDYWGQGTLVTVSS
VL: QSVLTQPPSVSGAPGQRVTISCTGSSSNIGAGYDVHWYQQLPGTAPKLLIYGNNNRPSGVPDRFSGSKSGTSASLAITGLQAEDEADYYCQSYDSSLSGSWVFGGGTKLTVL
notes: as for B2
B7: V011 (antibody, V domains shown)
VH: QVQLVQSGAEVKKPGASVKVSCKASGYIFTSYDINWVRQATGQGLEWMGWMNPNSGNTGYAQKFQGRVTMTRNTSISTAYMELSSLRSEDTAVYYCARASSSLTYYFDYWGQGTLVTVSS
VL: SYELTQPPSVSVAPGKTARITCGENNIGSKSVHWYQQKPGQAPVLVVYDDSDRPSGIPERFSGSNSGNTATLTISRVEAGDEADYYCQVWDSSSDPVVFGGGTKLTVL
notes: as for B1
B8: V002 (antibody, V domains shown)
VH: EVQLVESGGGLVQPGRSLRLSCAASGFTFDEYAMHWVRQAPGKGLEWVSGSSWNSGTIGYADSVKGRFTISRDNAKNSLYLQMNSLRAEDTALYYCAKSQGDYGGNSGAGYFQHWGQGTLVTVSS
VL: SYELTQPPSVSVAPGKTARITCGGNNIGSKSVHWYQQKPGQAPMLVVYDDSDRPSGIPERFSGSNSGNTATLTISRVEAGDEADYYCQVWDSSSEVYVFGTGTKVTVL
notes: as for B1
B9: V010 (antibody, V domains shown)
VH: QVQLQESGPGLVKPSETLSLTCTVSGGSISSYYWSWIRQPPGKGLEWIGYIYYNGSTNYNPSLKSRVTISLDTSKNQFSLKLSSVTAADTAVYYCASDYYDSSGYYYGFDYWGQGTLVTVSS
VL: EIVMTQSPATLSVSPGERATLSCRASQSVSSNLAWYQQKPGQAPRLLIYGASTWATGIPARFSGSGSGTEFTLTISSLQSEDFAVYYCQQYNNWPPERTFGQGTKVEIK
notes: as for B1
B10: V062 (antibody, V domains shown)
VH: QLQLQESGPGLVKPSETLSLTCTVSSGSISSSSYYWGWIRQPPGKGLEWIGSIYYSGSTYYNPSLKSRVTISVDTSKNQFSLKLSSVTAADTAVYYCARHWRENFAHAFDIWGQGTMVTVSS
VL: QSALTQPASVSGSPGQSITISCTGTSSDVGSYDLVSWFQQHPGKAPKLMIYEVTKRPSGVSNRFSGSKSGNTASLTISGLQAEDEADYYCCSYVGSSTYWVFGGGTKLTVL
notes: as for B2
B11: V028 (antibody, V domains shown)
VH: QVQLVESGGGVVQPGRSLRLSCAASGFTFSSYGMHWVRQAPGKGLEWVAVVSFDGSDKYYADSVKGRFTISRDNSKNTLYLQMNSLRAEDTALYYCAKGGYSYAYPRYYFDYWGQGTLVTVSS
VL: DIQMTQSPSSLSASVGDRVTITCQASQDISNYLNWYQQKPGKAPKLLIYDASNLETGVPSRFSGSGSGTDFTFTISSLQPEDIATYYCQQHDNLPITFGQGTRLEIK
notes: IgG; donor BRA14; source: recombinant monoclonal IgG, produced and purified as previously described
B12: V031 (antibody, V domains shown)
VH: QVQLVESGGGVVQPGRSLRLSCAASGFTFSSYGMHWVRQAPGKGLEWVAVISYDGSNKYYADSVKGRFAFSRDNSKNTLYLQMNSLRAEDTAVYYCAKGGYSYAYPRYYFDYWGQGTLVTVSS
VL: DIQMTQSPSSLSASVGDRVTITCQASQDISNYLNWYQQKPGKAPKLLIYDASNLETGVPSRFSGSGSGTDFTFTISSLQPEDIATYYCQQHDNLPITFGQGTRLEIK
notes: as for B11
B13: V063 (antibody, V domains shown)
VH: QVQLVESGGGVVQPGRSLRLSCAASGFPFSSFGMHWVRQAPGKGLEWVAVISSDGSNKYYADSVKGRFTISRDNSKNTLYLQMNSLRAEDTAVYYCAKEFTYVVVTAFWGTENFDIWGQGTMVTVSS
VL: DIQMTQSPSTLSASVGDRVTITCRASQSISSWLAWYQQKPGKAPNLLIYKASALESGVPSRFSGSGSGTEFTLTISSLQPDDFATYYCQQYNSYPITFGQGTRLEIK
notes: as for B2
B14: V016 (antibody, V domains shown)
VH: QVQLVESGGGVVQPGRSLRLSCAASGFTFSNYGMHWVRQAPGKGLEWVAVISYDGSNKYYADSVKGRFTISRDNSKNTLYLQMNSVRVEDTAVYYCAKGSFGYSYVHTYFDYWGQGTLVTVSS
VL: DIQMTQSPSTLSASVGDRVTITCRASQSISSWLAWYQQKPGKAPKLLIYDASSLESGVPSRFSGSGSGTEFILTISSLQPDDFATYYCQQYNSPMYTFGQGTKLEIK
notes: as for B1
B15: V015 (antibody, V domains shown)
VH: EVQLVESGGGLVQPGGSLRLSCAASGFTFNSYWMSWVRQAPGKGLEWVANIKQDGSEKYYVDSVKGRFTISRDNAKNSLYLQMNSLRAEDTAVYYCARLPTYYSGFDYWGQGTLVTVSS
VL: NFMLTQPHSVSESPGKTVTISCTGSSGSIASNYVQWYQQRPGSAPTTVIYEDNQRPSGVPDRFSGSIDSSSNSASLTISGLKTEDEADYYCQSYDSTNRGVVFGGGTKLTVL
notes: as for B1
B16: V025 (antibody, V domains shown)
VH: QVQLVQSGAEVKKPGASVKVSCKASGYTFTSYGISWVRQAPGQGLEWMGWISVYNGKTNYAQKLQGRVTMTTDTSTSTAYMELRSLISDDTAVYYCARADRYNWDYGSSWGQGTLVTVSS
VL: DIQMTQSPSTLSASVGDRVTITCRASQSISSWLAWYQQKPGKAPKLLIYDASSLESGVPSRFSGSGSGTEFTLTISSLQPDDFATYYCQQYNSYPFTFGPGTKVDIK
notes: as for B1
B17: V056 (antibody, V domains shown)
VH: QVQLVESGGGVVQPGRSLRLSCAASGFPFSNYGMHWVRQAPGKGLEWVAVISYDGSNKYYADSVKGRFTISRDNSKNTLYLQMNSLRAEDTALYYCAKDSRPLPAAMSTYYYYGVDVWGQGTTVTVSS
VL: not shown
notes: as for B2
B18: V060 (antibody, V domains shown)
VH: QVQLVESGGGVVQPGRSLRLSCAASGFPFSNYGMHWVRRAPGKGLEWVAVISYDGLNKYYADSVKGRFTISRDNSKNTLYLQMNRLRAEDTAVYYCAKDSRPVPGAMSTYYYYGMDVWGQGTTVTVSS
VL: not shown
notes: as for B2
B19: V014 (antibody, V domains shown)
VH: EVQLVESGGGLVQPGGSLRLSCAASGFTFSSYDMHWVRQATGKGLEWVSAIGTAGDTYYPGSVKGRFTISRENAKNSLYLQMNSLRAGDTAVYYCARGVITMVRGVIRDYYYYGMDVWGQGTTVTVSS
VL: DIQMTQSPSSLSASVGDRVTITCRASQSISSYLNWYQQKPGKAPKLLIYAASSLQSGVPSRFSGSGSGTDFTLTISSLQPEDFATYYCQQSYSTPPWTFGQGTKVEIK
notes: as for B1
B20: V009 (antibody, V domains shown)
VH: EVQLVQSGAEVKKPGESLKISCKGSGYRFTSYWIGWVRQMPGKGLEWMGIIYAGDSDTRYSPSFQGQVTISVDKSISTAYLQWSSLKASDTAMYYCATTMTTGYFDYWGQGTLVTVSS
VL: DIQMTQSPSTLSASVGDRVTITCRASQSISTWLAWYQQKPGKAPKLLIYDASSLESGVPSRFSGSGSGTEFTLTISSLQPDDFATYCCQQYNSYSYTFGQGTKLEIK
notes: as for B1
B21: V020 (antibody, V domains shown)
VH: QVQLVESGGGVVQPGRSLRLSCAASGFTFSSYGMHWVRQAPGKGLEWVAVISYDGSNKYYADSVKGRFTISRDNSKNTLYLQMNSLRAEDTAVYYCAKGGWFGELLRYFDYWGQGTLVTVSS
VL: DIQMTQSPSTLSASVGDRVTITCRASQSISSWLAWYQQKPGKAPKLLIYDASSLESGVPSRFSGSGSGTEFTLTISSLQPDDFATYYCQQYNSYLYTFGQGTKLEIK
notes: as for B1
B22: V026 (antibody, V domains shown)
VH: QVQLVESGGGVVQPGRSLRLSCAVSGFTFSSYGMHWVRQAPGKGLEWVAVISYEGSNKYYADSVKGRFTISRDNSKNTLYLQMNSLRAEDTAVYYCAKGGWYGSPTYYFDYWGQGTLVTVSS
VL: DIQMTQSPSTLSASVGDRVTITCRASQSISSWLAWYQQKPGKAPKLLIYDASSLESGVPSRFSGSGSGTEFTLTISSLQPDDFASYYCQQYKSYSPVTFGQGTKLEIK
notes: as for B1
B23: V022 (antibody, V domains shown)
VH: EVQLVESGGGLVKPGGSLRLSCAASGFTFSSYSMNWVRQAPGKGLEWVSSISSTNNYIYNADSVKGRFTISRDNAKNSLYLQMNSLRAEDTAVYYCARDPAGRYSYGLYYFYYMDVWGKGTTVTVSS
VL: QSALTQPASVSGSPGQSITISCTGTSSDVGGYNYVSWYQQRPGKAPKLMIYDVSNRPSGVSDRFSGSKSGNTASLTISGLQAEDEADYYCTSYTSSSSLYVFGTGTKVTVL
notes: as for B1
B24: V019 (antibody, V domains shown)
VH: QVQLVQSGAEVKKPGSSVKVSCKASGGTFSTYTFSWVRQAPGQGLEWMGRIIPILGIANYAQKFQGRITITADKSTSTAYMELSSLRSEDTAVYYCAWGSYSYGYFVDIWGQGTMVTVSS
VL: DIVMTQTLLSLSVTPGQPASISCKSSQSLLHSDGKTYLYWYLQKPGQSPQLLIYEVSSRFSGVPDRFSGSGSGTDFTLKISRVEAEDVGVYYCMQGIQFHWTFGQGTKLEIK
notes: as for B1
B25: V013 (antibody, V domains shown)
VH: QVQLVESGGGVVQPGRSLRLSCAGSGFIFSSFAMHWVRQAPGKGLEWVAVVSYDGDNKYYADSVKGRFTISRDNSKNTLYLQMDSLRPEDTAVYFCGRDEAALWIQRWYREIDFWGQGTLVTVSS
VL: QSVLTQPPSVSGTPGQRVTISCSGSSSNTGRNPVTWYQQFPGSAPKLLISRNNQRPSGVPDRFSGSKSGTSASLAISGLQSEDEADYYCAAWDDNLNGQVFGGGTKVTVL
notes: as for B1

These binders were tested against SARS-CoV-2 Wuhan-Hu-1 RBD (SARS-CoV-2 Wuhan-Hu-1, UniProt P0DTC2) (assay: BLI). Conditions: both partners purified.

How did the Kd turn out when B1 was run?
The Kd was 18.4 nM.

With B2 as the binder, how does the Kd read?
The Kd was 2.76 nM.

Does B3 bind?
Result: no binding (tested: 100 µg/ml RBD)

For B4, which Kd is on record?
The Kd was 13.3 nM.

With B5 as the binder, how does the Kd read?
The Kd was 2980 nM.

B6 was tested. Which Kd did it give?
Its Kd is 16.9 nM.

For B7, which Kd is on record?
The Kd was 7.46 nM.

Which Kd does the source give for B8 here?
The Kd was 1170 nM.

With B9 as the binder, how does the Kd read?
The Kd was 2.08 nM.

For B10, which Kd is on record?
The Kd was 2.86 nM.

For B11, which Kd is on record?
The Kd was 19.8 nM.

B12 was tested. Which Kd did it give?
The Kd was 9.39 nM.

How did the Kd turn out when B13 was run?
The Kd was 4.16 nM.

B14 was tested. Which Kd did it give?
The Kd was 5.84 nM.

Which Kd does the source give for B15 here?
The Kd was 15.8 nM.

B16 was tested. Which Kd did it give?
Its Kd is 1.93 nM.

Which Kd does the source give for B17 here?
The Kd was 14.3 nM.

Which Kd does the source give for B18 here?
Its Kd is 20.6 nM.

With B19 as the binder, how does the Kd read?
Its Kd is 15.1 nM.

How did the Kd turn out when B20 was run?
The Kd was 3.22 nM.

With B21 as the binder, how does the Kd read?
The Kd was 77.3 nM.

How did the Kd turn out when B22 was run?
Its Kd is 10.7 nM.

How did the Kd turn out when B23 was run?
The Kd was 13 nM.

B24 was tested. Which Kd did it give?
Its Kd is 3.84 nM.

For B25, which Kd is on record?
Its Kd is 128 nM.
